Consider one substance from paper PMC12817929.

In this assay the target is HEV-ORF2 mutant lacking all three KFERQ-like motifs (ORF2ΔCMA) (hepatitis E virus genotype 3 (HEV-3), KernowC1-p6 strain). The assay can be described thus: co-IP; HEK-293T transfected with plasmids for HSC70 and GRP75 together with WT ORF2 or ORF2ΔCMA for 48 h, NP-40 lysis, IP with Mab-2G8, blots for HSC70 and GRP75.

“GRP75 expressed from plasmid in HEK-293T cells together with HSC70 and ORF2 (tag not stated) (from UniProt P38646 47-679) (natural protein)”: the decrease of co-precipitated GRP75 against wild-type ORF2 was 50%.
